Series [1] deals with PPARα/RXR heterodimer (UniProt Q07869+P19793). The series can be described thus: EMSA. The following applies: cooperativity ratio; 0.5 mM ZnCl2, 4 C. In general terms: A gel shift assay detects complexes by their altered migration in electrophoresis.
Series [2] concerns the target PPARγ/RXR heterodimer (UniProt P37231+P19793). The series is described as follows: EMSA. The following applies: 0.5 mM ZnCl2, 4 C.
[3] abbreviates: cooperativity ratio, dimer and tetramer complexes.

PPARγ/RXR heterodimer, sequence (P37231 whole entry, chain 1 of 2): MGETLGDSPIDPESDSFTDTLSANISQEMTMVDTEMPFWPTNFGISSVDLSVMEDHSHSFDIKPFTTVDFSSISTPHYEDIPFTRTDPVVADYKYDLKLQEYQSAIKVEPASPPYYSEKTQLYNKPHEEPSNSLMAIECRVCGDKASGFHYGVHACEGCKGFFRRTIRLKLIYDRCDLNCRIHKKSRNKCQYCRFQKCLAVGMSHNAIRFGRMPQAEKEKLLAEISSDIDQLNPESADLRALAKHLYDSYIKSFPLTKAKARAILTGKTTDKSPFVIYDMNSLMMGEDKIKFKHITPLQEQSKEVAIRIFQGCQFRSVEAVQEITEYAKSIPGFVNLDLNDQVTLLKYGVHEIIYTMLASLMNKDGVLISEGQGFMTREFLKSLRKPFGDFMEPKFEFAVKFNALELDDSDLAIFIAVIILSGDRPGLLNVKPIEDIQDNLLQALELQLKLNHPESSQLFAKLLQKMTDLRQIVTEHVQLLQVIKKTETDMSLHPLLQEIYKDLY
PPARγ/RXR heterodimer, sequence (P19793 whole entry, chain 2 of 2): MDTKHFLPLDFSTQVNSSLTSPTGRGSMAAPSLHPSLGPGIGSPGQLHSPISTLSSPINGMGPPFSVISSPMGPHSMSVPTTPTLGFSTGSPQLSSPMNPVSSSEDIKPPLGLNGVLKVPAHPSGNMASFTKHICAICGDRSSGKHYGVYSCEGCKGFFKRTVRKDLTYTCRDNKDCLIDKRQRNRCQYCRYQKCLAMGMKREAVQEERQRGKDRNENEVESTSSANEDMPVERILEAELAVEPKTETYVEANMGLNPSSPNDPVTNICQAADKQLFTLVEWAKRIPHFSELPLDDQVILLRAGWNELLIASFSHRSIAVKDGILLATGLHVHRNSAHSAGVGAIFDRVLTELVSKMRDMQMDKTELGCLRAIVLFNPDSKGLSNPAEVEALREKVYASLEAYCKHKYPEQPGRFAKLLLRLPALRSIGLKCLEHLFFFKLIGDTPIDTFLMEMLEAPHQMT
PPARα/RXR heterodimer, sequence (Q07869 whole entry, chain 1 of 2): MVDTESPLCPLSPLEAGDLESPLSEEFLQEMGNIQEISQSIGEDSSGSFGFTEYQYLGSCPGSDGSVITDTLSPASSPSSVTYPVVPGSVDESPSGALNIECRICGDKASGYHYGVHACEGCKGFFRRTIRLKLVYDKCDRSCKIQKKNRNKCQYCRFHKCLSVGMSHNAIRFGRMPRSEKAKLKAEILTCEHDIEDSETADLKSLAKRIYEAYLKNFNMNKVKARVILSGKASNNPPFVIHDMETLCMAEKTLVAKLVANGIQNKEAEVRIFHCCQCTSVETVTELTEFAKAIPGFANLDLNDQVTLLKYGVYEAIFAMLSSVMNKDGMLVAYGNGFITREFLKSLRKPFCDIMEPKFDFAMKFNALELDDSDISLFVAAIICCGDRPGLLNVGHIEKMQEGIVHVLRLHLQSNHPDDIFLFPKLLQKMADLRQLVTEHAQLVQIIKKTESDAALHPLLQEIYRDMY
PPARα/RXR heterodimer, sequence (P19793 whole entry, chain 2 of 2): as the sequence (P19793 whole entry, chain 2 of 2) above

Take “CAAAACTAGGTCAAAGGTCAAAACTAGGTCAAAGGTCA (double strand) [(DR1)2 17]”: the binding signal in series [1] worked out at 7 KdII/KdIV. In addition, the cooperativity ratio (KdII/KdIV) in series [2] (setting [3]) is 9 KdII/KdIV.
“CAAAACTAGGTCAAAGGTCATGTCTTTAGGCCCAAAACTAGGTCAAAGGTCA (double strand) [(DR1)2 31]”: the binding signal in series [1] amounted to 11.6 KdII/KdIV. The cooperativity ratio (KdII/KdIV) in series [2] (setting [3]) worked out at 12.6 KdII/KdIV.
As for “CAAAACTAGGTCAAAGGTCATCAAAACTAGGTCAAAGGTCA (double strand) [(DR1)2 21]”, in series [1], the binding signal turned out to be 11.2 KdII/KdIV. Besides, the cooperativity ratio (KdII/KdIV) in series [2] (cooperativity ratio 34 +/- 11, 80% tetrameric) is 34 KdII/KdIV.

For the origin of these results see patent publication US20020081719.
